Patent publication US20230338424A1 (LENTIGEN TECHNOLOGY, published 2023)

T1: recombinant human CD123 (human, UniProt P26951 19-305, limits assumed)
T1 construct: also called coated CD123
T1 sequence (looked up): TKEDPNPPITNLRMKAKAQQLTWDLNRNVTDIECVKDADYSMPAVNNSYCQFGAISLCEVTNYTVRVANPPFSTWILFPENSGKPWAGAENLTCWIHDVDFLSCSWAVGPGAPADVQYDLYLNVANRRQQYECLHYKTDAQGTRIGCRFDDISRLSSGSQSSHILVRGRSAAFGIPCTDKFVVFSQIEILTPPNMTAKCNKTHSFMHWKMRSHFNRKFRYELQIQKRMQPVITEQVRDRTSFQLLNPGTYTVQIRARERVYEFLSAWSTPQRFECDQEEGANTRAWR

T2: recombinant human CD123-Fc (human, UniProt P26951 19-305, limits assumed)
T2 construct: Treated as one molecule; also called CD123-Fc peptide (Novoprotein); recombinant IL3R-alpha Fc-tagged; not shown: Fc tag
T2 sequence (looked up): T1 sequence (looked up)

B1: scFv MB35-E02 (scFv)
scFv: QVQLVQSGAEVKKPGSSVKVSCKASGGTFSSYAISWVRQAPGQGLEWMGGIIPIFGTANYAQKFQGRVTITADESTSTAYMELSSLRSEDTAVYYCARHGGMATMLPYGAFDIWGQGTMVTVSSGGGGSGGGGSGGGGSDIRLTQSPSSLSASVGDRVTITCRASQGISSYLNWYQQKPGKAPKLLIYAASRLQSGVPSRFSGSGSGTDFTLTISSLQPEDFATYYCQQSYSTSLTFGGGTKVEIK
notes: Soluble scFv carried c-myc and His tags; also called CD123 (MB35-E02)
B2: scFv MB40-F08 (scFv)
scFv: QVQLVQSGAEVKKPGSSVKVSCKASGGTFSSYAISWVRQAPGQGLEWMGGIIPIFGTANYAQKFQGRVTITADESTSTAYMELSSLRSEDTAVYYCARGSGELLYASYYYYYMDVWGKGTTVTVSSGGGGSGGGGSGGGGSQSALTQPASVSGSPGQSITISCTGTSSDVGGYNYVSWYQQHPGKAPKLMIYEVSNRPSGVSNRFSGSKSGNTASLTISGLQAEDEADYYCSSYTSSSPLVFGTGTKVTVL
notes: Soluble scFv carried c-myc and His tags; also called CD123 (MB40-F08)
B3: scFv MB42-E02 (scFv)
scFv: QVQLVQSGAEVKKPGASVKVSCKASGYTFTSYGISWVRQAPGQGLEWMGWISAYNGNTNYAQKLQGRVTMTTDTSTSTAYMELRSLRSDDTAVYYCARGAYYDFWSGYSWFDPWGQGTLVTVSSGGGGSGGGGSGGGGSQSVLTQPPSVSVAPGQTARIPCGGNNIGSKGVHWYQQKSGQAPVMVVYDDSDRPSGIPERFSGSNSGNTATLTISRVEAGDEADYYCQVWDSSGDLVLFGGGTKLTVL
notes: Soluble scFv carried c-myc and His tags; also called CD123 (MB42-E02)
B4: scFv MB42-E12 (scFv)
scFv: QVQLVQSGAEVKKPGASVKVSCKASGYTFTSYGISWVRQAPGQGLEWMGWISAYNGNTNYAQKLQGRVTMTTDTSTSTAYMELRSLRSDDTAVYYCARGAYYDFWSSYSWFDPWGQGTLVTVSSGGGGSGGGGSGGGGSSYVLTQPPSVSVAPGKTARITCGGNNIGSKSVHWYQQKPGQAPVLVVYDDSDRPSGIPERFSGSNSGNTATLTISRVEAGDEADYYCQVWDSSSDHVVFGGGTKLTVL
notes: Soluble scFv carried c-myc and His tags; also called CD123 (MB42-E12)
B5: scFv MB40-H08 (scFv)
scFv: QVQLVQSGAEVKKPGSSVKVSCKASGGTFSSYAISWVRQAPGQGLEWMGGIIPIFGTANYAQKFQGRVTITADESTSTAYMELSSLRSEDTAVYYCARNEWYSYYYYYMGVWGKGTTVTVSSGGGGSGGGGSGGGGSQSALTQPASVSGSPGQSITISCTGTSSDVGGYNYVSWYQQHPGKAPKLMIYEVSNRPSGVSNRFSGSKSGNTASLTISGLQAEDEADYYCSSYTSSSTLVVFGGGTKLTVL
notes: Soluble scFv carried c-myc and His tags; also called CD123 (MB40-H08)
B6: scFv MB44-H01 (scFv)
scFv: QVQLVQSGAEVKKPGSSVKVSCKASGGTFSSYAISWVRQAPGQGLEWMGGIIPIFGTANYAQRFQGRVTITADESTSTAYMELSSLRSEDTAVYYCARGLGTSYYYYYMDVWGKGTTVTVSSGGGGSGGGGSGGGGSQSVLTQPPSASGSPGQSVTISCTGTSSDVGGYNYVSWYQQHPGKAPKLMIYEVSNRPSGVSNRFSGSKSGNTASLTISGLQAEDEADYYCSSYTSSSTPVVFGGGTKLTVL
notes: Soluble scFv carried c-myc and His tags; also called CD123 (MB44-H01)
B7: scFv MB42-D03 (scFv)
scFv: QVQLVQSGAEVKKPGASVKVSCKASGYTFTSYGISWVRQAPGQGLEWMGWISAYNGNTNYAQKLQGRVTMTTDTSTSTAYMELRSLRSDDTAVYYCARGAYYDFWSSYSWFDPWGQGTLVTVSSGGGGSGGGGSGGGGSSYVLTQPPSVSVAPGKTARITCGGNSIGSKSVQWYQQKPGQAPVLVIYDDSDRPSGIPERFSGSNSGNTATLTISRVEAGDEADYYCQVWDSSSDVVFGGGTKLTVL
notes: Soluble scFv carried c-myc and His tags; also called CD123 (MB42-D03)
B8: scFv MB36-A05 (scFv)
scFv: QVQLVQSGAEVKKPGSSVKVSCKASGGTFSSYAISWVRQAPGQGLEWMGGIIPIFGTANYAQKFQGRVTITADKSTSTAYMELSSLRSEDTAVYYCARGGRNSYYYYYMDVWGKGTTVTVSSGGGGSGGGGSGGGGSQSALTQPASVSGSPGQSITISCTGTSSDVGGYNYVSWYQQHPGKAPKLMIYEVSNRPSGVSNRFSGSKSGNTASLTISGLQAEDEADYYCSSYTSSSPVVFGGGTKLTVL
notes: Soluble scFv carried c-myc and His tags; also called CD123 (MB36-A05)
B9: scFv MB31-A01 (scFv)
scFv: QIQLVQSGAEVKKPGSSVKVSCKASGGTFSSYAISWVRQAPGQGLEWMGGIIPIFGTANYAQKFQGRVTITADESTSTAYMELSSLRSEDTAVYYCARGSGELLYASYYYYYMDVWGKGTTVTVSSGGGGSGGGGSGGGGSQSALTQPASVSGSPGQSITISCTGTSSDVGGYNYVSWYQQHPGKAPELMIYDVSNRPSGVSNRFSGSKSGNTASLTISGLQAEDEADYYCSSYTSSSTPVVFGGGTKLTVL
notes: Soluble scFv carried c-myc and His tags (detection antibodies); also called CD123 (MB31-A01)
B10: CAR D0127 CD123 MB35-E02 CD8 BBz (other)
chain: QVQLVQSGAEVKKPGSSVKVSCKASGGTFSSYAISWVRQAPGQGLEWMGGIIPIFGTANYAQKFQGRVTITADESTSTAYMELSSLRSEDTAVYYCARHGGMATMLPYGAFDIWGQGTMVTVSSGGGGSGGGGSGGGGSDIRLTQSPSSLSASVGDRVTITCRASQGISSYLNWYQQKPGKAPKLLIYAASRLQSGVPSRFSGSGSGTDFTLTISSLQPEDFATYYCQQSYSTSLTFGGGTKVEIKAAATTTPAPRPPTPAPTIASQPLSLRPEACRPAAGGAVHTRGLDFACDIYIWAPLAGTCGVLLLSLVITLYCKRGRKKLLYIFKQPFMRPVQTTQEEDGCSCRFPEEEEGGCELRVKFSRSADAPAYQQGQNQLYNELNLGRREEYDVLDKRRGRDPEMGGKPRRKNPQEGLYNELQKDKMAEAYSEIGMKGERRRGKGHDGLYQGLSTATKDTYDALHMQALPPR
notes: Chimeric antigen receptor on transduced human primary T cells; also called EF-1a-CD123 MB35-E02 CD8 BBz

target: T1, recombinant human CD123; experiment: ELISA, soluble scFv on coated recombinant human CD123
Experimental: After each round of incubation, the wells were washed 10 times for the first round, 20 times for the second round and 30 times for the third round with phosphate-buffered saline containing 0.05% Tween 20 (PBST) to remove nonspecifically bound phage. Antigen binding phage were eluted with 100 µl 10 µg/ml Trypsin diluted in PBS and mixed with TG1 competent cells for 1 hour at 37° C., and the phage was amplified from the infected cells and used in the next round of biopanning. After the third round of biopanning, 376 clones were randomly picked from the infected TG1 cells and each inoculated into 150 µl 2YT medium containing 100 µg/ml ampicillin and 200 mM glucose in 96-well plates by using the automated colony picking system (Molecular Devices, QPix 460) and were incubated at 37° C. overnight in a shaker at 300 rpm. Next day 10 µl of the bacterial cultures were used to inoculate 150 µl 2YT medium containing 100 µg/ml ampicillin and 50 µM isopropyl-β-d-thiogalactopyranoside in 96-well plates and the plates were further incubated at 30° C. overnight in a shaker at 300 rpm. […] The supernatants were incubated for 1 h at room temperature with recombinant human CD123 coated at 30 ng per well in 384-well plates and washed three times with PBST, (after overnight incubation at 4° C. it was blocked with 2% BSA in PBS containing 0.05% Tween 20 and washed three times with PBS containing 0.05% Tween 20.) After incubation the 3,3,′5,5′-tetramethylbenzidine (TMB) substrate was added, and solution absorbance at 450 nm (A450) measured. Clones that bound to CD123 with a signal to noise ratio of >5 were selected for further characterization.

Binding result, binds:
B1
B2
B3
B4
B5
B6
B7
B8
B9

target: T3, CD123 on cells (MOLM-13, MOLM14, KG-1a, RS4;11-CD123) (human, UniProt P26951 19-378); experiment: flow cytometry, soluble scFv on CD123-positive MOLM-13 cells, anti-His-APC
T3 construct: whole, on cells; also called CD123 antigen; CD123/IL-3 receptor alpha
T3 sequence (P26951 19-378): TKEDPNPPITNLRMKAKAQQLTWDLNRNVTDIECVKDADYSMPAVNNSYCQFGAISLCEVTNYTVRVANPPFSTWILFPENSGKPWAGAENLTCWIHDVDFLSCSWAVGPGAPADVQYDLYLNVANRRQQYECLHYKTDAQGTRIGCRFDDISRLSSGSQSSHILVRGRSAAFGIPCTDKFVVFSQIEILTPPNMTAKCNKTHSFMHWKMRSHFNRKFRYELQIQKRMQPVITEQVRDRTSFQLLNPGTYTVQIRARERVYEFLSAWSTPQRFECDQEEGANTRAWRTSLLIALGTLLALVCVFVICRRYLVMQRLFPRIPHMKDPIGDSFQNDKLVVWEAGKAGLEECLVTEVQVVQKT
Experimental: Identified binders from ELISA were tested on CD123-positive the cell line MOLM-13. The CD123-negative cell line Jeko-1 CD20KO eGFP served as negative control. For positive control staining REAL270 (alpha CD123) and REAL116 (alpha CD123) antibodies were used, respectively. Soluble scFvs were expressed as described above. The bacterial pellets were disrupted by incubation with 0.3 mL TE buffer (10 mM Tris-HCl containing 1 mM EDTA, pH 8.0 at 37° C.)/well at 37° C., 250 rpm for 18 hours. Cultures were centrifuged at 4000xg, RT for 20 minutes and the supernatant was transferred to a fresh microtiter plate.
For cell staining cell number and viability were determined at MACSQuantX. A cell suspension containing needed cell number were centrifuged at 300xg, 4° C. for 10 minutes and supernatant was discarded. Cells are resuspended by addition of PEB buffer (1xPBS + 2 mM EDTA, 0.5% BSA pH 7.4 at RT) to a concentration of 1E+06 cells/mL. One hundred thousand cells per cell line were added to each well of 96-well V-bottom plate and the plate were centrifuged at 1300xg, 4° C. for 2 minutes. The supernatant was discarded, cells were resuspended in 100 µL of supernatant from periplasmatic preparation and cells were incubated for 10 minutes on ice. Cells were washed by addition of 100 µL PEB followed by centrifugation (1300 x g, 4° C. for 2 minutes), twice. Fifty microliter of secondary (Anti-His-APC conjugated antibody) or REAL antibody (diluted 1:50 in PEB buffer) per well were added and the plate is incubated for 10 minutes in the dark at 4° C. Cells were washed by addition of 100 µL PEB followed by centrifugation (1300xg, 4° C. for 2 minutes), twice. Propidium iodide was diluted 1:100 in Fixing solution (1xPBS + 2 mM EDTA + 1% PFA + 0.3% MeOH + 3% NaAzide) and washed cells were resuspended in 50 µL of the mixture. Signals are measured at MACSQuantX. Signals were analyzed using FlowLogic software. Statistical analysis was performed with VORTEX software.

Binding result, binds:
B1
B2
B3
B4
B5
B6
B7
B8
B9

target: T2, recombinant human CD123-Fc; experiment: flow cytometry, CAR T cells stained with recombinant IL3R-alpha Fc-tagged, anti-Fc AF647
Experimental: Half million CAR T cells were washed two times in cold AutoMACS buffer supplemented with 0.5% bovine serum albumin (Miltenyi Biotec, Bergisch Gladbach, Germany) and stained with 2.5 ug/ml CD123-Fc peptide (Novoprotein, Summit, NJ), followed by anti Fc-AF647 conjugate (Jackson ImmunoResearch, West Grove, PA). The 7-Aminoactinomycin D staining (7-AAD, BD Biosciences, San Jose, CA) was added to exclude dead cells. Non-transduced cells (UTD) were used as a negative control. Cells were washed twice with AutoMACS buffer supplemented with 0.5% bovine serum albumin, resuspended in 200 ul staining buffer and acquired by flow cytometry. Flow cytometric analysis was performed on a MACSQuant® 10 Analyzer (Miltenyi Biotec), and data plots were generated using FlowJo software (Ashland, OR).
Lentiviral vectors encoding the CD123 CAR constructs were used for CAR transduction into human primary T cells at multiplicity of infection (MOI) of 40. CAR surface expression of transduced T cells by flow cytometry using recombinant IL3R-alpha Fc-tagged, followed by staining with anti-Fc Alexa Flour 647.

Binding result, binds:
B10
